Data published in the supplement of paper PMC7877785.
± gives the uncertainty stated by the source.

Test: self-splicing fitness, log relative to wild type (ln ratio); higher = more splicing; Tetrahymena group I intron in knt gene, E. coli kanamycin selection, DiMSum; sequences stand for … in CUCUCU…GGAGGGAAAAGUUAUCAGGCAUGCACCUGGUAGCUAGUCUUUAAACCAAUAGAUUGCAUCGGUUUAAAAGGCAAGACCGUCAAAUUGCGGGAAAGGGGUCAACAGCCGUUCAGUACCAAGUCUCAGGGGAAACUUUGAGAUGGCCUUGCAAAGGGUAUGGUAAUAAGCUGACGGACAUGGUCCUAACCACGCAGCCAAGUCCUAAGUCAACAGAUCUUCUGUUGAUAUGGAUGCAGUUCACAGACUAAAUGUCGGUCGGGGAAGAUGUAUUCUUCUCAUAAGAUAUAGUCGGACCUCUCCUUAAUGGGAGCUAGCGGAUGAAGUGAUGCAACACUGGAGCCGCUGGGAACUAAUUUGUAUGCGAAAGUAUAUUGAUUAGUUUUGGAGUACUCGUGGUCG
In short: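 Pooled colonies went to amplicon sequencing on an Illumina HiSeq 2500 after six replicate transformations. The plates were LB agar with 100 μg/mL carbenicillin, 50 μM IPTG and 0.2% rhamnose, with or without 25 μg/mL kanamycin, incubated overnight at 37°C or 30°C. The E. coli BL21(DE3) library had all eight P1ex-region intron nucleotides randomised, the intron placed in the knt kanamycin-resistance gene on pET-22b(+). DiMSum fitness is the error-weighted combination of replicate fold changes, kanamycin against none, normalised to wild type.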

Row | Sequence | self-splicing fitness (ln) (30 °C) | self-splicing fitness (ln) (37 °C)
1 | CAGCAGCAAUAUUACGAGAG | -2.38 ± 0.083 | -1.81 ± 0.089
2 | CAGCAGCAAUAUUACGAGAU | -2.65 ± 0.24 | -1.71 ± 0.2
3 | CAGCAGCAAUAUUACGAUAG | -0.297 ± 0.063 | -0.0435 ± 0.077
4 | CAGCAGCAAUAUUACGAUAU | -3.29 ± 0.24 | -2.3 ± 0.19
5 | CAGCAGCAAUAUUACGAUCA | -2.71 ± 0.2 | -1.88 ± 0.21
6 | CAGCAGCAAUAUUACGAUCU | -3.54 ± 0.35 | -2.38 ± 0.19
7 | CAGCAGCAAUAUUACGCGCA | -0.471 ± 0.13 | -0.346 ± 0.16
8 | CAGCAGCAAUAUUACGCUCU | -3.08 ± 0.16 | -2.08 ± 0.17
9 | CAGCAGCAAUAUUACGCUUA | -1.51 ± 0.13 | -0.645 ± 0.12
10 | CAGCAGCAAUAUUACGGACA | -2.86 ± 0.17 | -2.28 ± 0.17
11 | CAGCAGCAAUAUUACGGCCA | -0.605 ± 0.091 | -0.22 ± 0.11
12 | CAGCAGCAAUAUUACGGGGA | -1.98 ± 0.18 | -2.22 ± 0.19
13 | CAGCAGCAAUAUUACGGGGU | -3.28 ± 0.15 | -2.57 ± 0.16
14 | CAGCAGCAAUAUUACGGGUG | -1.35 ± 0.082 | -0.904 ± 0.085
15 | CAGCAGCAAUAUUACGGUCC | -3.63 ± 0.22 | -1.63 ± 0.2
16 | CAGCAGCAAUAUUACGUAUC | -3.6 ± 0.19 | -2.13 ± 0.13
17 | CAGCAGCAAUAUUACGUCAC | -1.69 ± 0.24 | -2.75 ± 0.28
18 | CAGCAGCAAUAUUACGUCCC | -2.38 ± 0.47 | 
19 | CAGCAGCAAUAUUACGUCCU | -2.31 ± 0.17 | -0.614 ± 0.14
20 | CAGCAGCAAUAUUACGUCUA | -0.137 ± 0.045 | 0.377 ± 0.06
21 | CAGCAGCAAUAUUACGUCUC | -1.15 ± 0.064 | -0.898 ± 0.075
22 | CAGCAGCAAUAUUACGUGCA | -1.03 ± 0.061 | -0.673 ± 0.066
23 | CAGCAGCAAUAUUACGUGCU | -3.3 ± 0.13 | -1.94 ± 0.12
24 | CAGCAGCAAUAUUACGUGUA | -2.97 ± 0.078 | -1.65 ± 0.072
25 | CAGCAGCAAUAUUACGUUUC | -3.76 ± 0.17 | -2.53 ± 0.2

Row | Sequence | self-splicing fitness (ln) (30 °C) | self-splicing fitness (ln) (37 °C)
26 | CAGGAGCAAUAUUACGAAAU | -2.55 ± 0.33 | 
27 | CAGGAGCAAUAUUACGAACC |  | -1.07 ± 0.24
28 | CAGGAGCAAUAUUACGACUG |  | -2.83 ± 0.38
29 | CAGGAGCAAUAUUACGAGAG | -1.92 ± 0.15 | -1.67 ± 0.17
30 | CAGGAGCAAUAUUACGAUAU | -1.88 ± 0.17 | -2.37 ± 0.35
31 | CAGGAGCAAUAUUACGAUGC |  | -2.83 ± 0.26
32 | CAGGAGCAAUAUUACGCAAA | -4.2 ± 0.46 | 
33 | CAGGAGCAAUAUUACGCAAG | -2.98 ± 0.35 | -1.06 ± 0.27
34 | CAGGAGCAAUAUUACGCGAA | -1.4 ± 0.17 | -2.07 ± 0.23
35 | CAGGAGCAAUAUUACGCGAU | -3.06 ± 0.28 | 
36 | CAGGAGCAAUAUUACGCGUC | -4.22 ± 0.36 | -3.04 ± 0.4
37 | CAGGAGCAAUAUUACGCUAG | -1.28 ± 0.23 | -1.1 ± 0.27
38 | CAGGAGCAAUAUUACGCUGG | -1.96 ± 0.26 | -0.934 ± 0.24
39 | CAGGAGCAAUAUUACGCUGU | -3.13 ± 0.43 | -2.65 ± 0.44
40 | CAGGAGCAAUAUUACGGAAC | -3.67 ± 0.43 | 
41 | CAGGAGCAAUAUUACGGAGA | -2.81 ± 0.28 | -2.34 ± 0.37
42 | CAGGAGCAAUAUUACGGGCA | -2.48 ± 0.15 | -2.35 ± 0.22
43 | CAGGAGCAAUAUUACGGUCU | -3.85 ± 0.22 | -2.84 ± 0.17
44 | CAGGAGCAAUAUUACGUACG | -1.06 ± 0.088 | 0.312 ± 0.13
45 | CAGGAGCAAUAUUACGUAGG | -0.929 ± 0.1 | 0.172 ± 0.11
46 | CAGGAGCAAUAUUACGUAUG | -2.27 ± 0.082 | -1.5 ± 0.11
47 | CAGGAGCAAUAUUACGUGGG | -2.85 ± 0.18 | -2.31 ± 0.15
48 | CAGGAGCAAUAUUACGUGUU | -3.24 ± 0.17 | -2.55 ± 0.27
49 | CAGGAGCAAUAUUACGUUGU | -3.34 ± 0.17 | -2.26 ± 0.19
50 | CAGUAGCAAUAUUACGAAGC |  | -3.05 ± 0.32

Row | Sequence | self-splicing fitness (ln) (30 °C) | self-splicing fitness (ln) (37 °C)
51 | CAGUAGCAAUAUUACGACCA | -0.792 ± 0.28 | -0.375 ± 0.27
52 | CAGUAGCAAUAUUACGAGAC | -3.08 ± 0.24 | -1.31 ± 0.28
53 | CAGUAGCAAUAUUACGAUGC | -3.51 ± 0.28 | -2.67 ± 0.3
54 | CAGUAGCAAUAUUACGCAGC | -3.05 ± 0.34 | -1.3 ± 0.33
55 | CAGUAGCAAUAUUACGCCGA | -3.13 ± 0.35 | -0.00684 ± 0.18
56 | CAGUAGCAAUAUUACGCCUU | -1.35 ± 0.4 | 
57 | CAGUAGCAAUAUUACGCGAC |  | -1 ± 0.32
58 | CAGUAGCAAUAUUACGCGAU | -2.39 ± 0.28 | -2.67 ± 0.34
59 | CAGUAGCAAUAUUACGCGCU | -1.56 ± 0.26 | -1.28 ± 0.27
60 | CAGUAGCAAUAUUACGCUUU | -4.27 ± 0.24 | -1.93 ± 0.17
61 | CAGUAGCAAUAUUACGGCAC | -2.42 ± 0.21 | -2.06 ± 0.25
62 | CAGUAGCAAUAUUACGGCGA | -2.45 ± 0.26 | -1.9 ± 0.29
63 | CAGUAGCAAUAUUACGGCUG | -3.85 ± 0.47 | -2.37 ± 0.34
64 | CAGUAGCAAUAUUACGGGGA | -3.9 ± 0.4 | -2.23 ± 0.21
65 | CAGUAGCAAUAUUACGGUGC | -3.8 ± 0.28 | -3.2 ± 0.31
66 | CAGUAGCAAUAUUACGGUGU | -3.63 ± 0.3 | -0.678 ± 0.15
67 | CAGUAGCAAUAUUACGUACA | -1.46 ± 0.14 | -1.83 ± 0.16
68 | CAGUAGCAAUAUUACGUCCC |  | -1.76 ± 0.4
69 | CAUAAGCAAUAUUACGAACG | -0.246 ± 0.074 | -0.0693 ± 0.087
70 | CAUAAGCAAUAUUACGAUAC |  | -2.28 ± 0.34
71 | CAUAAGCAAUAUUACGAUCG | -0.428 ± 0.1 | -0.532 ± 0.11
72 | CAUAAGCAAUAUUACGAUGC | -3.14 ± 0.19 | -2.34 ± 0.28
73 | CAUAAGCAAUAUUACGAUGU | -3.66 ± 0.14 | -2.3 ± 0.14
74 | CAUAAGCAAUAUUACGAUUC | -3.25 ± 0.2 | -3.11 ± 0.26
75 | CAUAAGCAAUAUUACGCAAG | -2.14 ± 0.11 | -0.944 ± 0.13

Row | Sequence | self-splicing fitness (ln) (30 °C) | self-splicing fitness (ln) (37 °C)
76 | CAUAAGCAAUAUUACGCGCU | -3.52 ± 0.28 | -2.34 ± 0.2
77 | CAUAAGCAAUAUUACGCGGA | -3.61 ± 0.24 | -1.68 ± 0.16
78 | CAUAAGCAAUAUUACGCUCA | -1.25 ± 0.088 | -1.18 ± 0.11
79 | CAUAAGCAAUAUUACGGCAC | -2.85 ± 0.22 | -2.59 ± 0.21
80 | CAUAAGCAAUAUUACGGGAG | -1.96 ± 0.097 | -1.14 ± 0.095
81 | CAUAAGCAAUAUUACGGGUG | -2.3 ± 0.08 | -1.17 ± 0.078
82 | CAUAAGCAAUAUUACGGUGA | -3.65 ± 0.27 | -2.36 ± 0.23
83 | CAUAAGCAAUAUUACGUAAC | -3.03 ± 0.23 | -2.1 ± 0.26
84 | CAUAAGCAAUAUUACGUAGC | -3.15 ± 0.17 | -2.96 ± 0.2
85 | CAUAAGCAAUAUUACGUCGC | -4.06 ± 0.18 | -3.2 ± 0.17
86 | CAUAAGCAAUAUUACGUGCG | -1.15 ± 0.079 | -0.792 ± 0.098
87 | CAUAAGCAAUAUUACGUGGA | -3.5 ± 0.22 | -2.53 ± 0.21
88 | CAUAAGCAAUAUUACGUUGG | -2.6 ± 0.095 | -1.26 ± 0.094
89 | CAUAAGCAAUAUUACGUUGU | -3.55 ± 0.15 | -2.98 ± 0.18
90 | CAUCAGCAAUAUUACGAUCC | -1.56 ± 0.12 | -0.817 ± 0.16
91 | CAUCAGCAAUAUUACGCACA | -0.992 ± 0.098 | -1.21 ± 0.11
92 | CAUCAGCAAUAUUACGCCCG | -0.306 ± 0.12 | 0.0609 ± 0.15
93 | CAUCAGCAAUAUUACGCCGU | -2.51 ± 0.11 | -1.13 ± 0.15
94 | CAUCAGCAAUAUUACGCGAA | -3.13 ± 0.14 | -1.93 ± 0.12
95 | CAUCAGCAAUAUUACGCGCA | -1.21 ± 0.1 | -0.493 ± 0.12
96 | CAUCAGCAAUAUUACGCGGC | -3.39 ± 0.2 | -2.8 ± 0.29
97 | CAUCAGCAAUAUUACGCUAG | -0.614 ± 0.075 | -0.102 ± 0.093
98 | CAUCAGCAAUAUUACGGAGC | -3.44 ± 0.31 | -2.1 ± 0.31
99 | CAUCAGCAAUAUUACGGCGA | -3.11 ± 0.28 | -1.27 ± 0.15
